Measured values published in paper PMC4454046, “Aptamer-based Sandwich Assay and its Clinical Outlooks for Detecting Lipocalin-2 in Hepatocellular Carcinoma (HCC)”.

B1: LCN2_apta3 (ssDNA)
DNA: ATACCAGCTTATTCAATTCCCAAGGGCGAGCTGGCGGCTTGTTGCATAAATTCGTGGAGATAGTAAGTGCAATCT
B2: LCN2_apta31 (ssDNA)
DNA: ATACCAGCTTATTCAATTCCCGATCAGAACATCGGCTCTTATACCCGTTTTGGTCACGAGATAGTAAGTGCAATCT
B3: LCN2_apta29 (ssDNA)
DNA: ATACCAGCTTATTCAATTCCGTGACAAGTTGCAGGGGCTGTGCGGTTCTTTTTTTTTGAGATAGTAAGTGCAATCT
B4: LCN2_apta4 (ssDNA)
DNA: ATACCAGCTTATTCAATTCGGAGGGCGGAAGCAAAGCGTAACAGAAAGCCAACACGCGAGATAGTAAGTGCAATCT
B5: LCN2_apta34 (ssDNA)
DNA: ATACCAGCTTATTCAATTCGGAGCGGTAGTTTGAGGAGGAAACAACCCGGCCTTGGAGAGATAGTAAGTGCAATCT
B6: LCN2_apta21 (ssDNA)
DNA: ATACCAGCTTATTCAATTCCGGATTTTCGCACGGCTAGCGGGGAACCACTGTCTGGGAGATAGTAAGTGCAATCT
B7: LCN2_apta6 (ssDNA)
DNA: ATACCAGCTTATTCAATTGCACGGTACGCTCTTGAGTGATCCACAATTTCTAACCGCGAGATAGTAAGTGCAATCT
B8: LCN2_apta12 (ssDNA)
DNA: ATACCAGCTTATTCAATTCAGGGAAAGGTTACGCGACACATTAGTTTTGAGTCCGTTCAGATAGTAAGTGCAATCT
B9: LCN2_apta25 (ssDNA)
DNA: ATACCAGCTTATTCAATTGCCACTCGACATGCTTGCCTGTACACTAAAACACTATTCAGATAGTAAGTGCAATCT
B10: LCN2_apta23 (ssDNA)
DNA: ATACCAGCTTATTCAATTCGTATCAGAATCGCGTGTCACCTTATCTGCCGTATGGGTGAGATAGTAAGTGCAATCT
B11: LCN2_apta18 (ssDNA)
DNA: ATACCAGCTTATTCAATTCCAGCAAGTAAAGGTTATTTACTAGTTAGGGGCTTCTTGAGATAGTAAGTGCAATCT
B12: LCN2_apta13 (ssDNA)
DNA: ATACCAGCTTATTCAATTCGCGGCCTAACTTTGGAAGTTCCTCAGAATACTCAGTTGAGATAGTAAGTGCAATCT
B13: LCN2_apta2 (ssDNA)
DNA: ATACCAGCTTATTCAATTCCACAGTAGGTGAGGTTCACTGAGTTATCCATTGTTGGCAAGATAGTAAGTGCAATCT
B14: LCN2_apta11 (ssDNA)
DNA: ATACCAGCTTATTCAATTGCGATCGACGCCTGGAGAAGTTCCAGCATTAGCGTAAGTGAGATAGTAAGTGCAATCT
B15: LCN2_apta26 (ssDNA)
DNA: ATACCAGCTTATTCAATTCCAACACCTTGGGTATCCTGTTATATTCACTTGTTGAGTAAGATAGTAAGTGCAATCT
B16: LCN2_apta20 (ssDNA)
DNA: ATACCAGCTTATTCAATTCCACAAACGGTACTGGACAGTTCTTATATGCTTACATTTGAGATAGTAAGTGCAATCT
B17: LCN2_apta16 (ssDNA)
DNA: ATACCAGCTTATTCAATTCCGCGTCACCTCACTGCTCCCACCTGCGTTGCGTCTCTAAGATAGTAAGTGCAATCT
B18: LCN2_apta24 (ssDNA)
DNA: ATACCAGCTTATTCAATTGGGGAACTGAATTATCAGAGATTTTATTCACCTCGTTGGGAGATAGTAAGTGCAATCT
B19: LCN2_apta33 (ssDNA)
DNA: ATACCAGCTTATTCAATTCACGACGATAGTGCAGTGGATACATTCGGCCCTTACCATGAGATAGTAAGTGCAATCT
B20: LCN2_apta19 (ssDNA)
DNA: ATACCAGCTTATTCAATTCGACAAAGGAGCTACGTCTACATAGCGTGGTGAGTGCTTGAGATAGTAAGTGCAATCT
B21: LCN2_apta1 (ssDNA)
DNA: ATACCAGCTTATTCAATTGCCACGACTTGGGGAATCCTAAGGGCTGTGAACGCCGTGGAGATAGTAAGTGCAATCT
B22: LCN2_apta27 (ssDNA)
DNA: ATACCAGCTTATTCAATTGCGATAATCTTGGTTTTCTTTTCAGTTTCTTTAGGGCGGGAGATAGTAAGTGCAATCT
B23: LCN2_apta15 (ssDNA)
DNA: ATACCAGCTTATTCAATTCCACACCAGTCCTTGTTCGTAGATCACGGTTTCTTCAGGAAGATAGTAAGTGCAATCT
B24: LCN2_apta30 (ssDNA)
DNA: ATACCAGCTTATTCAATTGCACGGGTAAGAAAACGGGGAACTTGAAAGTAGTGCTGTGAGATAGTAAGTGCAATCT
B25: LCN2_apta7 (ssDNA)
DNA: ATACCAGCTTATTCAATTCCGCGTCACCTCACTGCTCCCACTGCGTTGCGTCTCTAAGATAGTAAGTGCAATCT
B26: LCN2_apta10 (ssDNA)
DNA: ATACCAGCTTATTCAATTGGCAGTAGGGCGGGGGGGAGCATGGAGCACATTCTTGTCGAGATAGTAAGTGCAATCT
B27: LCN2_apta8 (ssDNA)
DNA: ATACCAGCTTATTCAATTCGACAATAGATCAGAACGCTCGAGTTCGCGAGGTGGGGGAGATAGTAAGTGCAATCT
B28: LCN2_apta5 (ssDNA)
DNA: ATACCAGCTTATTCAATTCCCAGCAATCCATTACTTCGTTAGTTCTAATTACCAACCAGATAGTAAGTGCAATCT
B29: LCN2_apta22 (ssDNA)
DNA: ATACCAGCTTATTCAATTCCAACGAGGATGCCAAAGAAAGGTGAGGTGGTCCTAAGGGAGATAGTAAGTGCAATCT
B30: LCN2_apta17 (ssDNA)
DNA: ATACCAGCTTATTCAATTCACGTGCGACAGGGGGATCTGGCTTTATCCCAGCGTGTTAAGATAGTAAGTGCAATCT
B31: LCN2_apta32 (ssDNA)
DNA: ATACCAGCTTATTCAATTCGAGTCATTGTTTTGCAAAGGATTATGCGTTGTAACGGAGAGATAGTAAGTGCAATCT

biological target: Lipocalin-2 (LCN2, NGAL) (human, UniProt P80188 21-198); experiment: SPR (BIAcore 3000, CM5 chip); SPR BIAcore 3000, 24 C, LCN2 amine-coupled to CM5 chip; running buffer for the Kd assay not stated (HBS-EP used for SA-chip activation); details: protein: recombinant; tags: C-terminal polyhistidine
Sequence (P80188 21-198): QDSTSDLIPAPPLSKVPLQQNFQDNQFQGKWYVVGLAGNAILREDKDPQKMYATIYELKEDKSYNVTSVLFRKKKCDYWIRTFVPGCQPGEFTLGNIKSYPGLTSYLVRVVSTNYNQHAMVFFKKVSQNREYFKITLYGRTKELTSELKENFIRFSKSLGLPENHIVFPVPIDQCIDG

Compared with B1, B2 is far higher in Kd: 0.00719 nM for the first, 1780 nM for the second.

Going from B3 to B4, the Kd falls from 565 nM to 0.0609 nM (9300-fold). The second binds more tightly here.

Compared with B5, B6 is 3.3-fold lower in Kd: 2870 nM for the first, 872 nM for the second. The second binds more tightly here.

Compared with B7, B8 is 110-fold higher in Kd: 0.801 nM for the first, 84.5 nM for the second. The first binds more tightly here.

Compared with B10, B11 is 21-fold higher in Kd: 158 nM for the first, 3380 nM for the second.

First: B13
Second: B15
The Kd of the first is 53000-fold lower: 0.00224 nM for the first, 118 nM for the second. The first binds more tightly here.

Going from B16 to B17, the Kd rises from 10.9 nM to 220 nM (20-fold).

Compared with B20, B21 is far lower in Kd: 66.6 nM for the first, 0.000647 nM for the second. The second binds more tightly here.

Compared with B22, B24 is 6.2-fold higher in Kd: 13.9 nM for the first, 86.4 nM for the second.

First: B25
Second: B26
The Kd of the first is 91-fold lower: 1.1 nM for the first, 99.9 nM for the second.

First: B27
Second: B28
The Kd of the first is 42-fold higher: 3.42 nM for the first, 0.0816 nM for the second.

B29 gave a Kd of 8440 nM.

B9: no binding.
B12: no binding.
B14: no binding.
B18: no binding.
B19: no binding.
B23: no binding.
B30: no binding.
B31: no binding.
